Measured values published in article PMC12102758.

Biological target: SkSGL from Sanguibacter keddieii fused with a His6-tag at the C-terminus (Group 2 / GH193 β-1,2-glucanase) (Sanguibacter keddieii)
Assay: SEC; Superdex 200 (HiLoad 16/60), 20 mM Tris-HCl (pH 7.5) in place of 50 mM Tris-HCl (pH 8.0); size by protein markers

stoichiometry N: 2
Substance: SkSGL from Sanguibacter keddieii fused with a His6-tag at the C-terminus (Group 2 / GH193 β-1,2-glucanase) (enzyme)
